In experiment [1] the target is T1, recombinant human VCAM-1 (Cat. No. 809-VR-200, R&D systems) (human, UniProt P19320 25-698, limits assumed).
T1 sequence (looked up): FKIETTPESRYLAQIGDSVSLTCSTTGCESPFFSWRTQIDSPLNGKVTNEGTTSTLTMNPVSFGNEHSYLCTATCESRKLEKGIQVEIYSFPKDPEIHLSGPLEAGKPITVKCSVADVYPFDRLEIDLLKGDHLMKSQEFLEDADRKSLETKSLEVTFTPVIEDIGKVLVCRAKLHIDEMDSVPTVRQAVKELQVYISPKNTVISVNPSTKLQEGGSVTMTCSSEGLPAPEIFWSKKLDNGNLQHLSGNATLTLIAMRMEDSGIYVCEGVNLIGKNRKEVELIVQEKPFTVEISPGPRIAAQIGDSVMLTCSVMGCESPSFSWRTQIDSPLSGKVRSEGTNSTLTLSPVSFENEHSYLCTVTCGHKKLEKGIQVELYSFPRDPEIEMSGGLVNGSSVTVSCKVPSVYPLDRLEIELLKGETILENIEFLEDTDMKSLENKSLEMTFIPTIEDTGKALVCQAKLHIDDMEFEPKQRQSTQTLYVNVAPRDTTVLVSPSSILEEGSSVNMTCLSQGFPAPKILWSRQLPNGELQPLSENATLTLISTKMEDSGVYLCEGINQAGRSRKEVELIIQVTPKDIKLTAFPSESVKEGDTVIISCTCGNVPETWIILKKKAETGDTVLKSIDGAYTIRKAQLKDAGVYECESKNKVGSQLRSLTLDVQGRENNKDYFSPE
The experiment is described as follows: cell-based or functional assay.

The target in experiment [2] is T2, recombinant human VCAM-1 domain 1~7/Fc chimera (R&D, 862-VC) (human, UniProt P19320 25-698).
T2 construct: domain: domain 1~7; Bought product; also called VD7; hVCAM-Fc-chimera; Fc part of the bought chimera not given
T2 sequence (looked up): T1 sequence (looked up)
The experiment can be described thus: SPR (BIACORE), VCAM-1/Fc immobilised on CM5 chip, antibody as analyte, 1:1 binding model. The procedure:
(§1) 1 mg/Ml of ligand to be immobilized was diluted in 97 μl of each sodium acetate solution (varying within the pH range from 4.0 to 5.5) at a dilution ratio of 3/100, and then applied at a flow rate of 10 μl/min for about 3 min (as a negative control, the ligand was diluted using a running buffer, HBS-EP buffer (BIACORE AB, Sweden) in the same manner). In order to immobilize the ligand at a predetermined value target RU (resonance unit), serial injection was carried out automatically, until reaching target RU. The ligand-immobilized chip was inactivated by injection of 1M ethanolamine (Amine Coupling Kit, BR-1000-50) at a flow rate of 10 μl/min for about 3 min. The final RU was determined by an immobilization report which provides a difference in RU values before and after injection of ethanolamine.
(§2) A flow cell2-flow cell mode provided by BIACORE instrument was employed in this experiment in order to remove non-specific binding. At this time, a recombinant VCAM1/Fc antigen was immobilized as a ligand to the flow cell2, and BSA (Bovine Serum Albumin) was immobilized to the flow cell. Then, each of the anti VCAM-1 antibodies 4B, 7C and 7H as the analyte were applied to flow cell 1 and 2, simultaneously. The sensogram RU of flow cell was automatically subtracted from the sensogram RU of flow cell2. Subsequently, the analytes were applied at a flow rate of 30 μl/min for about 3 min, and then dissociation was induced for 120 sec. Through this procedure, an association/dissociation curve of the corresponding antigen and antibody was obtained, and an association/dissociation constant KD was calculated by BIAevaluation program (BIACORE AB, Sweden), as shown in the following Table 2.
(§3) The above Table 2 represents the binding capacity or affinity of human and mouse VCAM-1 antigen-specific anti VCAM-1 human monoclonal antibodies to antigen, and a protein affinity analyzer, BIACORE (BIACORE AB, Sweden) was used to analyze a species specific antigen-antibody affinity to the biologically different species, human and mouse antigens. The affinity constant KD value of corresponding antigen-antibody was calculated in a 1:1 binding mode.
A general note: In SPR one partner is held on a chip, and binding of the other changes the refractive index at the surface.

In experiment [3] the target is T3, mVCAM-1-Fc chimera (R&D systems, Cat# 643-VM) (mouse, UniProt P29533 25-698).
T3 construct: Bought product; also called Mouse VCAM-1 antigen; mouse antigen; Fc part of the bought chimera not given
T3 sequence (looked up): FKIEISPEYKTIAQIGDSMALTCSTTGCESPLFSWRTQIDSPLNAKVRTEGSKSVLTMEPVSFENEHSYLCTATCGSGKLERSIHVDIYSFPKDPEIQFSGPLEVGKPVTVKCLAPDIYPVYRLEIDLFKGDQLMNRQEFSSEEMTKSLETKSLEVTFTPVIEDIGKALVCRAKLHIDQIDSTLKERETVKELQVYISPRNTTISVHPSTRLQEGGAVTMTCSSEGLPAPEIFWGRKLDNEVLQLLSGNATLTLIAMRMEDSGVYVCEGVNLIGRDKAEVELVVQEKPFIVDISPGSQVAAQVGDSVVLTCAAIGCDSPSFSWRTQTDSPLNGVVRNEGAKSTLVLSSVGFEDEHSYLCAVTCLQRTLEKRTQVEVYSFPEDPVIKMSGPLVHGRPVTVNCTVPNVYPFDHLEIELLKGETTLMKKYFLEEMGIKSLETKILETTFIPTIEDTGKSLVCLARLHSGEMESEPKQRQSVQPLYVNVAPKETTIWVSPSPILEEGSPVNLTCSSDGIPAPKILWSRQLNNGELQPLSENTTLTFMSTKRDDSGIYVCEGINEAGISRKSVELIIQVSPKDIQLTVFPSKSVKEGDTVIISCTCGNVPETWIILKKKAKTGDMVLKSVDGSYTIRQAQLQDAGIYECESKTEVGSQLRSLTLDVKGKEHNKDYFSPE
Described as above. The procedure: as §1, §2, §3

For experiment [4], the target named is T2, recombinant human VCAM-1 domain 1~7/Fc …. The experiment is described as follows: SPR (BIACORE), VCAM-1/Fc immobilised, antibody as analyte. How it is done: as §1, with “For ligand immobilization to the sensor chip CM5, the chip should be first activated with a mixture of N-hydroxysuccinimide (NHS) and […] (EDC) (Amine Coupling Kit, BR-1000-50) to prepare a NHS-ester-activated chip surface being highly reactive to an amino group. 1 mg/Ml” for “1 mg/Ml”, “target RU. […] The final” for “target RU. The ligand-immobilized chip was inactivated by injection of 1M ethanolamine (Amine Coupling Kit, BR-1000-50) at a flow rate of 10 μl/min for about 3 min. The final”
(§4) A flow cell2-flow cell mode provided by BIACORE instrument was employed in this experiment in order to remove non-specific binding. […] Through this procedure, an association/dissociation curve of the corresponding antigen and antibody was obtained, and an association/dissociation constant KD was calculated by BIAevaluation program (BIACORE AB, Sweden), as shown in the following Table 2.

Experiment [5] addresses T3, mVCAM-1-Fc chimera (R&D systems, Cat# …). The experiment is described as follows: SPR (BIACORE), VCAM-1/Fc immobilised on CM5 chip, antibody as analyte. How it is done: as §1, with “For ligand immobilization to the sensor chip CM5, the chip should be first activated with a mixture of N-hydroxysuccinimide (NHS) and […] (EDC) (Amine Coupling Kit, BR-1000-50) to prepare a NHS-ester-activated chip surface being highly reactive to an amino group. 1 mg/Ml” for “1 mg/Ml”, “target RU. […] The final” for “target RU. The ligand-immobilized chip was inactivated by injection of 1M ethanolamine (Amine Coupling Kit, BR-1000-50) at a flow rate of 10 μl/min for about 3 min. The final”
as §4

B1: anti VCAM-1 human monoclonal antibody 7C (antibody, V domains shown)
VH: QVQLVESGGGVVQPGGSLRLSCAASGFTFDDYAMHWVRQAPGKGLEWVSLISGDGTDTYYADSVKGRFTISRDNSKNSLYLQMNSLRAEDTAVYYCAKRGYSYLGALDGWGQGTKITVSS
VL: QLVLTQSPSVSVAPGQTARITCGGDNIGRESVHWYQQKAGQAPVLVIYYDSDRPSGIPERFSGSNSGNTATLTISWVDAGDEADYYCQVWDSSSDHVVFGGGTKLTVL
As for B1, the “inhibition of adhesion of fluorescence-labelled U937 leukocytes to coated human VCAM-1 (reduction in fluorescence intensity)” value in experiment [1] came to 90%. In addition, the dissociation constant (Kd) in experiment [2] was determined as 38.8 nM; in experiment [3] it was 36.9 nM.

B2: anti VCAM-1 human monoclonal antibody 7H (antibody, V domains shown)
VH: QMQLVQSGGDLVKPGESLRLSCAASGFTFNDAWMTWVRQPPGKGLEWVGRIKSTTDGGTTNYAAPVEGRFTISRDDSKNTLYLEMNSLRAEDTAVYYCARIPLFNHDSGGYHGAFDIWGQGTMVTVSS
VL: DIQMTQSPSSLAVSLGERATINCKSSQSVLYSSNNKNYLAWYQQKPGQPPKLLIYWASTRESGVPDRFSGSGSGTDFTLTISSLQPEDFASYYCQESYSAPYTFGQGTKVEIKR
B2: the “inhibition of adhesion of fluorescence-labelled U937 leukocytes to coated human VCAM-1 (reduction in fluorescence intensity)” value in experiment [1] was found to be 90%. For the same molecule, the equilibrium dissociation constant (Kd) in experiment [2] amounted to 5.44 nM; in experiment [3], 10.7 nM.

B3: anti VCAM-1 human monoclonal antibody 4B (antibody, V domains shown)
VH: QMQLVESGGGLVQPGGSLRLSCAASGFTFSSYGVSWVRQAPGKGLEWVSRISGSGGSTYYADSVKGRFTISRDNSKSTLYLQMNSLRAEDTAVYYCARPIFYGGNSAFDSWGQGTLVTVSS
VL: QLVLTQPPSVSAAPGQKVTISCSGSSSNIGNNFVSWYQHLPGTAPKLLIYDNNKRPSGIPDRFSGSKSGTSATLGIAGLQTGDDADYYCGTWDSSLSAYVFGTGAKVTVL
notes: Tested as full IgG converted from an scFv phage clone and expressed in CHO-S (about 55 kDa heavy chain, about 25 kDa light chain)
As to B3, the “inhibition of adhesion of fluorescence-labelled U937 leukocytes to coated human VCAM-1 (reduction in fluorescence intensity)” value in experiment [1] amounted to 80%. The Kd was about 1 nM in experiment [4] and 0.5 nM in experiment [2]. Also, the binding result in experiment [5] is reported as “no binding”.

The Kd is the constant that tells how readily two partners part at equilibrium.
